Experimental data from paper doi:10.1101/2025.03.21.644421 (bioRxiv, 2025).

Key:
[1] = target: T1, LetA (N-terminal 6xHis2xQH-TEV tagged LetA) (E. coli, UniProt P0AD03 1-427); test: cryo-EM structure
T1 sequence (looked up): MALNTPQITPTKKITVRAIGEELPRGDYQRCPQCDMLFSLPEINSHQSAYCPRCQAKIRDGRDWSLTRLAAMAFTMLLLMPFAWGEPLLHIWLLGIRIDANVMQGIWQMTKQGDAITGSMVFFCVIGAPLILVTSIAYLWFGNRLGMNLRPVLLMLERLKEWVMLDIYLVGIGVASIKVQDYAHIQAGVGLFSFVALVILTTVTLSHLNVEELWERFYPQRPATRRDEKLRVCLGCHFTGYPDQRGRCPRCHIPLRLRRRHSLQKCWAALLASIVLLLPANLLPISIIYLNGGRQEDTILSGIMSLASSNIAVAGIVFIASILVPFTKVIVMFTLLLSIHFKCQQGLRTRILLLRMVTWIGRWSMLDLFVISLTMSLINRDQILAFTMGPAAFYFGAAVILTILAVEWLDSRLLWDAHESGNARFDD

cryo-EM structure = target: the molecule itself; test: cryo-EM structure

- stoichiometry N [1]: 6 LetB per LetA
B1: LetB (Lipophilic Envelope-spanning Tunnel B), untagged (natural protein, E. coli, UniProt P76272 1-877, looked up)
chain: MSQETPASTTEAQIKNKRRISPFWLLPFIALMIASWLIWDSYQDRGNTVTIDFMSADGIVPGRTPVRYQGVEVGTVQDISLSDDLRKIEVKVSIKSDMKDALREETQFWLVTPKASLAGVSGLDALVGGNYIGMMPGKGKEQDHFVALDTQPKYRLDNGDLMIHLQAPDLGSLNSGSLVYFRKIPVGKVYDYAINPNKQGVVIDVLIERRFTDLVKKGSRFWNVSGVDANVSISGAKVKLESLAALVNGAIAFDSPEESKPAEAEDTFGLYEDLAHSQRGVIIKLELPSGAGLTADSTPLMYQGLEVGQLTKLDLNPGGKVTGEMTVDPSVVTLLRENTRIELRNPKLSLSDANLSALLTGKTFELVPGDGEPRKEFVVVPGEKALLHEPDVLTLTLTAPESYGIDAGQPLILHGVQVGQVIDRKLTSKGVTFTVAIEPQHRELVKGDSKFVVNSRVDVKVGLDGVEFLGASASEWINGGIRILPGDKGEMKASYPLYANLEKALENSLSDLPTTTVSLSAETLPDVQAGSVVLYRKFEVGEVITVRPRANAFDIDLHIKPEYRNLLTSNSVFWAEGGAKVQLNGSGLTVQASPLSRALKGAISFDNLSGASASQRKGDKRILYASETAARAVGGQITLHAFDAGKLAVGMPIRYLGIDIGQIQTLDLITARNEVQAKAVLYPEYVQTFARGGTRFSVVTPQISAAGVEHLDTILQPYINVEPGRGNPRRDFELQEATITDSRYLDGLSIIVEAPEAGSLGIGTPVLFRGLEVGTVTGMTLGTLSDRVMIAMRISKRYQHLVRNNSVFWLASGYSLDFGLTGGVVKTGTFNQFIRGGIAFATPPGTPLAPKAQEGKHFLLQESEPKEWREWGTALPK
- stoichiometry N (cryo-EM structure): 6
